What all share (test): pull-down
Assay [1] deals with GST fusion with the C-terminal DNA-PKcs fragment H (a.a. 3747-4128) (human, UniProt P78527 3747-4128).
Assay [2] addresses GST fusion with DNA-PKcs fragment H2 (a.a. 3747-4097) (human, UniProt P78527 3747-4097).
For assay [3], the target named is hnRNP-A1 N-terminal RRMs fragment (a.a. 1-188) (UniProt P09651-2 1-188).

Chain of GST fusion with DNA-PKcs fragment H2 (a.a. 3747-4097) (P78527 3747-4097): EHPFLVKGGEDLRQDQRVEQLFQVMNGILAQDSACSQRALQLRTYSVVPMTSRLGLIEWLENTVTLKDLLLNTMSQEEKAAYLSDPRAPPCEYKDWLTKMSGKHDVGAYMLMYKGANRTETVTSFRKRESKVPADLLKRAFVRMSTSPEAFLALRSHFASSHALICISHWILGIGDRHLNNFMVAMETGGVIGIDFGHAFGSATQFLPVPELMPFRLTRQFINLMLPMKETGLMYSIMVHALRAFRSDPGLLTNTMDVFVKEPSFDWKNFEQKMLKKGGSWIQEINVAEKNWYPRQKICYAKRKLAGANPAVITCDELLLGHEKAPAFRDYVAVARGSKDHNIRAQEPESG

B1: His-tagged full-length hnRNP-A1 (recombinant, wild type) (natural protein, UniProt P09651-2 1-320, looked up)
chain: MSKSESPKEPEQLRKLFIGGLSFETTDESLRSHFEQWGTLTDCVVMRDPNTKRSRGFGFVTYATVEEVDAAMNARPHKVDGRVVEPKRAVSREDSQRPGAHLTVKKIFVGGIKEDTEEHHLRDYFEQYGKIEVIEIMTDRGSGKKRGFAFVTFDDHDSVDKIVIQKYHTVNGHNCEVRKALSKQEMASASSSQRGRSGSGNFGGGRGGGFGGNDNFGRGGNFSGRGGFGGSRGGGGYGGSGDGYNGFGNDGSNFGGGGSYNDFGNYNNQSSNFGPMKGGNFGGRSSGPYGGGGQYFAKPRNQGGYGGSSSSSSYGSGRRF
With B1, the binding result in assay [1] and in assay [2] was “binds” throughout.

B2: GST fusion with DNA-PKcs fragment H3 (a.a. 4036-4128) (domain or fragment, human, UniProt P78527 4036-4128, looked up)
chain: KNWYPRQKICYAKRKLAGANPAVITCDELLLGHEKAPAFRDYVAVARGSKDHNIRAQEPESGLSEETQVKCLMDQATDPNILGRTWEGWEPWM
With B2, the binding result in assay [3] is given as “binds”.

These data come from article PMC4499152 (Nucleic Acids Research, 2015).
